In publication PMC6056499, “A systematic dissection of sequence elements determining β-Klotho and FGF interaction and signaling” (Scientific Reports, 2018):

Experiments:
[1] = target: human β-Klotho extracellular domain (aa1–992) fused with a 6 × His tag at the C-terminus (UniProt Q86Z14); test: AlphaScreen; settings: parent: est. 1.0, read off a plot
mature human FGF21 = mature human FGF21 (UniProt Q9NSA1); test: solid-phase binding assay; settings: β-Klotho captured from conditioned media; parent: est. 1.0; read off a plot
[2] = competition with FGF19 for β-Klotho
[3] = competition with FGF21 for β-Klotho

human β-Klotho extracellular domain (aa1–992) fused with a 6 × His tag at the C-terminus, sequence (Q86Z14 53-992): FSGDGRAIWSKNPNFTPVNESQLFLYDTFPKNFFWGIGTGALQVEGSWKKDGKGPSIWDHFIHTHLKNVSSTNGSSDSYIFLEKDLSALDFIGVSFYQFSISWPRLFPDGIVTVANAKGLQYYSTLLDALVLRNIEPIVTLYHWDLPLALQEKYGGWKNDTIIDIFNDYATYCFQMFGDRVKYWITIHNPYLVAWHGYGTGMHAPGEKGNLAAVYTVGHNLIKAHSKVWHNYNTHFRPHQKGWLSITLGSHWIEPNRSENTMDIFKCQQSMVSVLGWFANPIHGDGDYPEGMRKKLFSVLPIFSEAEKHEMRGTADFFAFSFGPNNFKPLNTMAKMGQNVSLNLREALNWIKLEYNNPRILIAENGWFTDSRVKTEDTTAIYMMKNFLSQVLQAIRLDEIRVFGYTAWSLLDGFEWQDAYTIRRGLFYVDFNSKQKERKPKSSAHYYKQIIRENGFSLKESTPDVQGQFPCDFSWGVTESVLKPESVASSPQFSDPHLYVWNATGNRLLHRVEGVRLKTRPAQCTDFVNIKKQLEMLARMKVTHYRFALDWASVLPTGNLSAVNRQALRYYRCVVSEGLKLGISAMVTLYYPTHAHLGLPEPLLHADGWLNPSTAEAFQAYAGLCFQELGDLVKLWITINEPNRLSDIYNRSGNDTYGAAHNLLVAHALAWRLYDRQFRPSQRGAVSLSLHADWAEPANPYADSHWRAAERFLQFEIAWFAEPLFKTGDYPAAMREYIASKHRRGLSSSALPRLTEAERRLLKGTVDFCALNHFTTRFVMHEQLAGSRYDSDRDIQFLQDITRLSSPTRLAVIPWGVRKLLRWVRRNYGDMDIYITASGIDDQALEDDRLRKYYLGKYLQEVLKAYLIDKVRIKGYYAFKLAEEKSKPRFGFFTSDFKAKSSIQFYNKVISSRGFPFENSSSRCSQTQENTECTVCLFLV
FGF19 C-terminal peptide, WT FGF19^185–216 (from UniProt O95750) 206L-A, sequence (O95750 185-216, change not shown): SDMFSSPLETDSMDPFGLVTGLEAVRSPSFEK
FGF19 C-terminal peptide, WT FGF19^185–216 (from UniProt O95750) 196S-A, sequence (O95750 185-216, change not shown): as above
FGF19 C-terminal peptide, WT FGF19^185–216 (from UniProt O95750) 204T-A, sequence (O95750 185-216, change not shown): as above
FGF19 C-terminal peptide, WT FGF19^185–216 (from UniProt O95750) 205G-A, sequence (O95750 185-216, change not shown): as above
FGF19 C-terminal peptide, WT FGF19^185–216 (from UniProt O95750) 215E-A, sequence (O95750 185-216, change not shown): as above
FGF19 C-terminal peptide, WT FGF19^185–216 (from UniProt O95750) 197M-A, sequence (O95750 185-216, change not shown): as above
FGF19 C-terminal peptide, WT FGF19^185–216 (from UniProt O95750) 209V-A, sequence (O95750 185-216, change not shown): as above
FGF19 C-terminal peptide, WT FGF19^185–216 (from UniProt O95750) 207E-A, sequence (O95750 185-216, change not shown): as above
FGF19 C-terminal peptide, WT FGF19^185–216 (from UniProt O95750) 216K-A, sequence (O95750 185-216, change not shown): as above
FGF19 C-terminal peptide, WT FGF19^185–216 (from UniProt O95750) 210R-A, sequence (O95750 185-216, change not shown): as above
FGF19 C-terminal peptide, WT FGF19^185–216 (from UniProt O95750) 203V-A, sequence (O95750 185-216, change not shown): as above
FGF19 C-terminal peptide, WT FGF19^185–216 (from UniProt O95750) 201G-A, sequence (O95750 185-216, change not shown): as above
FGF19 C-terminal peptide, WT FGF19^185–216 (from UniProt O95750) 214F-A, sequence (O95750 185-216, change not shown): as above
FGF19 C-terminal peptide, WT FGF19^185–216 (from UniProt O95750) 213S-A, sequence (O95750 185-216, change not shown): as above

| ratio to parent [1, 2] | ratio to parent [1, 3] | ratio to parent (mature human FGF21) | Substance |
| --- | --- | --- | --- |
| 9.8 | 13 |  | FGF19 C-terminal peptide, WT FGF19^185–216 (from UniProt O95750) 196S-A |
| 0.8 | 0.3 |  | FGF19 C-terminal peptide, WT FGF19^185–216 (from UniProt O95750) 197M-A |
| 19 | 20 |  | FGF19 C-terminal peptide, WT FGF19^185–216 (from UniProt O95750) 201G-A |
| 3.8 | 5.5 |  | FGF19 C-terminal peptide, WT FGF19^185–216 (from UniProt O95750) 203V-A |
| 1.6 | 3.2 |  | FGF19 C-terminal peptide, WT FGF19^185–216 (from UniProt O95750) 204T-A |
| 1.3 | 1.4 |  | FGF19 C-terminal peptide, WT FGF19^185–216 (from UniProt O95750) 205G-A |
| 0.9 | 0.8 |  | FGF19 C-terminal peptide, WT FGF19^185–216 (from UniProt O95750) 206L-A |
| 0.6 | 1.1 |  | FGF19 C-terminal peptide, WT FGF19^185–216 (from UniProt O95750) 207E-A |
| 0.6 | 0.6 |  | FGF19 C-terminal peptide, WT FGF19^185–216 (from UniProt O95750) 209V-A |
| 1.2 | 1.4 |  | FGF19 C-terminal peptide, WT FGF19^185–216 (from UniProt O95750) 210R-A |
| 90 |  |  | FGF19 C-terminal peptide, WT FGF19^185–216 (from UniProt O95750) 213S-A |
| 220 |  |  | FGF19 C-terminal peptide, WT FGF19^185–216 (from UniProt O95750) 214F-A |
| 7 | 5.2 |  | FGF19 C-terminal peptide, WT FGF19^185–216 (from UniProt O95750) 215E-A |
| 0.2 | 0.2 |  | FGF19 C-terminal peptide, WT FGF19^185–216 (from UniProt O95750) 216K-A |
|  |  | 35 | human β-Klotho extracellular domain (aa1–992) fused with a 6 × His tag at the C-terminus (from UniProt Q86Z14) 380K-A |
|  |  | 5 | human β-Klotho extracellular domain (aa1–992) fused with a 6 × His tag at the C-terminus (from UniProt Q86Z14) 381P-A |
|  |  | 21 | human β-Klotho extracellular domain (aa1–992) fused with a 6 × His tag at the C-terminus (from UniProt Q86Z14) 381P-R |
|  |  | 30 | human β-Klotho extracellular domain (aa1–992) fused with a 6 × His tag at the C-terminus (from UniProt Q86Z14) 389G-A |
|  |  | 3.5 | human β-Klotho extracellular domain (aa1–992) fused with a 6 × His tag at the C-terminus (from UniProt Q86Z14) 389G-R |
|  |  | 10 | human β-Klotho extracellular domain (aa1–992) fused with a 6 × His tag at the C-terminus (from UniProt Q86Z14) 431T-R |
|  |  | 270 | human β-Klotho extracellular domain (aa1–992) fused with a 6 × His tag at the C-terminus (from UniProt Q86Z14) 437K-A |
|  |  | 5 | human β-Klotho extracellular domain (aa1–992) fused with a 6 × His tag at the C-terminus (from UniProt Q86Z14) 437K-R |
|  |  | 4.5 | human β-Klotho extracellular domain (aa1–992) fused with a 6 × His tag at the C-terminus (from UniProt Q86Z14) 531E-A |
|  |  | 15 | human β-Klotho extracellular domain (aa1–992) fused with a 6 × His tag at the C-terminus (from UniProt Q86Z14) 861R-A |
|  |  | 6 | human β-Klotho extracellular domain (aa1–992) fused with a 6 × His tag at the C-terminus (from UniProt Q86Z14) 862L-A |
|  |  | 25 | human β-Klotho extracellular domain (aa1–992) fused with a 6 × His tag at the C-terminus (from UniProt Q86Z14) 862L-R |
